Common to all, as to assay: SEC; analytical SEC, Superdex 200 Increase 10/300 GL, buffer W (100 mM Tris-HCl pH 8.0, 150 mM NaCl, 2.5 mM EDTA); protein solutions from the two AEC elution peaks; oligomeric state from the elution volume by the column's calibration
The target of assay [1] is Chlamydomonas reinhardtii truncated hemoglobin THB11, full length (Chlamydomonas reinhardtii).
Assay [2] concerns the target THB11-C (THB11 lacking the C-terminal 225 residues) (Chlamydomonas reinhardtii).
In assay [3] the target is THB11-N (THB11 lacking the N-terminal 41 amino acids) (Chlamydomonas reinhardtii).

Values joined by “and” are separate entries in the source; they are usually repeats but may differ in a detail not shown here. Equal entries are not always repeated.

For the substance “Chlamydomonas reinhardtii truncated hemoglobin THB11, full length (natural protein)”, in assay [1], the stoichiometry N was 3 and 7. Substance “THB11-C (THB11 lacking the C-terminal 225 residues) (domain or fragment)” displayed a stoichiometry N in assay [2] of 3. For the substance “THB11-N (THB11 lacking the N-terminal 41 amino acids) (domain or fragment)”, the stoichiometry N in assay [3] was 3 and 7.

The values are drawn from paper PMC7082302.
